Results published in US20200102349A1, “PEPTIDE REAGENTS AND METHODS FOR DETECTION AND TARGETING OF DYSPLASIA, EARLY CANCER AND CANCER” (THE REGENTS OF THE UNIVERSITY OF MICHIGAN, priority 2014, published 2020).

What was measured:
tumor xenograft = settings: systemic administration; cited from earlier work
HT29 cells = assay: Competition for peptide binding with unlabeled peptide; assay type: cell-based, human; settings: unlabeled peptide 0-500 μM, then 5 μM QRH*-Cy5.5, 4° C.
Procedure: Specific binding of QRH*-Cy5.5 to HT29 cells was validated on competitive inhibition with unlabeled QRH* peptide. A total of −10^3 HT29 cells were grown to −70% confluence on cover slips in triplicate. Unlabeled QRH* and PEH* peptide at 0, 50, 100, 150, 250, and 500 μM were added and incubated with the cells for 30 min at 4° C. The cells were washed and incubated with 5 μM of QRH*-Cy5.5 for another 30 min at 4° C. The cells were washed and fixed with 4% PFA for 5 min. The cells were washed with PBS and mounted with ProLong Gold reagent containing DAPI (Invitrogen). Fluorescence images were collected at each concentration using a 63× objective (Zeiss Axioskop 2 plus microscope), and intensities from 5 cells in 2 independent images were quantified using custom Matlab (Mathworks) software.

| Substance | time of peak accumulation / binding activity in tumor xenograft after injection (tumor xenograft) [h] | change of fluorescence intensity of QRH*-Cy5.5 binding on addition of unlabeled peptide (HT29 cells) |
| --- | --- | --- |
| LARLLT | ~80 |  |
| PEH*: unlabeled PEH* (control) (PEHKRRQGGGSK) [reference compound] |  | no change |
| QRH*: unlabeled QRH* peptide (QRHKPREGGGSK) |  | decrease in a concentration dependent manner |
| CMYIEALDKYAC | 8 |  |
